PMC5817723, “^99mTc-HYNIC-(tricine/EDDA)-FROP peptide for MCF-7 breast tumor targeting and imaging” (Journal of Biomedical Science, 2018)
Where two headings read alike, the source gives them in different places. Residues, ends and D or L forms follow the SMILES beside them. *: point of attachment. HYNIC = NNc1ccc(C(=O)*)cn1

How the values were obtained:
[1] = In vitro stability in normal saline at room temperature; format: physicochemical; conditions: TLC, n = 3
Procedure: The radiochemical purity was determined by instant thin layer chromatography (ITLC) in different mobile phases such as methyl ethyl ketone (MEK), acetonitrile/water (50/50) and citrate solvent (0.1 M, pH 5.2) using a Lablogic mini scan TLC scanner (Sheffield, UK) and Laura image analysis software. In MEK, free ^99mTcO4^− migrated with the solvent front, while radiolabeled peptide remained at the application point. In the acetonitrile/water system, the colloids remained at the application point, while radiolabeled peptide migrated in front of solvent. The amount of labeled co-ligand was determined by citrate solvent, that free ^99mTcO4 Na and labeled co-ligand migrate in front of solvent while both RHT and labeled peptide (^99mTc-FROP) remind at the origin. A NaI (Tl) gamma detector (Delshid, Tehran, Iran) was used to for measurement of radioactivity.
(§1) The stability of ^99mTc-HYNIC-FROP in normal saline was evaluated using ITLC at various times (2, 4, 6 and 24 h) at room temperature. For serum stability, ^99mTc-HYNIC-FROP (30 μL) was incubated with freshly human plasma serum (90 μL) in triplicate at 37 °C. At 1 h of incubation, the plasma proteins were precipitated with a mixture of acetonitrile/ethanol (1:1 v/v) and centrifugation. The supernatant layer was filtered through a 0.22 μm filter and then the fraction was analyzed by RP-HPLC. Partition coefficient of ^99mTc-HYNIC-FROP was determined via method that previously was described.

[2] = Partition coefficient between n-octanol and PBS; format: physicochemical; conditions: distribution between n-octanol and PBS; method of ref 22; mean ± SD; read-out: Log p (partition coefficient)
Procedure: as §1

[3] = Biodistribution in MCF-7 tumor-bearing nude mice; format: in vivo; conditions: female, C57 nu/nu, mouse, iv, total radioactivity; for tissue uptake at 0.5 h / tissue to tissue ratio at 0.5 h: 30 min p.i.
Procedure: The all animal studies were approved by Research and Ethical Committees of Mazandaran University of Medical Sciences. For xenografting, female C57 nu/nu mice were injected subcutaneously on the right upper back with a suspension of 1 × 10^7 MCF-7 cells and Matrigel® (BD, USA) and the tumors were allowed to grow for about 7–8 weeks. Estradiol valerate was injected subcutaneously into nude mice for 1 week. After tumor size reached in 1 cm^3, this tumor was removed from mouse in aseptic condition and was mechanically squelched with a mortar and with adding complete medium. Squelch of tumor tissue was centrifuged at 1500 rpm for 7 min at 4 °C. The upper medium was removed from tube and then complete medium and estradiol were added to cells pellet. […] Xenografts were allowed to develop during 2 months and the average tumor size was 1.01 ± 0.24 g. The in vivo biodistribution of ^99mTc-HYNIC-(tricine/EDDA)-Lys-FROP was performed on tumor bearing mice at 15 and 30 min post-injection. The mice (four mice in each time group) were injected with 100 μL of HYNIC-(tricine/EDDA)-Lys-FROP (1 μg) via a lateral tail vein. Mice were sacrificed with injection of a lethal dose of ketamine/xylazine after 15 and 30 min. The blood was collected from the heart puncture and the mice were dissected. Major organs (tumor, blood, heart, lung, liver, kidney, spleen, salivary gland, stomach, intestine, muscle and bone) were placed into pre weighed gamma counter tubes and radioactivity in each organ and tissue was measured using a gamma counter and expressed as a percent injected dose (% ID/g).
To confirm that the radiolabeled peptide was taken up specifically by MCF-7 tumor in vivo, the biodistribution of ^99mTc-HYNIC-FROP was performed with co-injection of a 500-fold (0.5 mg) excess non-radiolabelled FROP-1 and radiolabelled peptide in mice (N = 3 mice in this group). The unlabeled peptide was injected at 30 min before the injection of radiolabeled peptide.

CSCC[C@H](NC(=O)[C@H](CC(C)C)NC(=O)[C@H](CCC(=O)O)NC(=O)[C@H](Cc1ccc(O)cc1)NC(=O)[C@H](CC(=O)O)NC(=O)[C@@H](N)CCC(=O)O)C(=O)N[C@@H](CC(=O)O)C(=O)N[C@@H](CC(C)C)C(=O)N[C@@H](CC(C)C)C(=O)N[C@@H](C)C(=O)N[C@@H](Cc1ccc(O)cc1)C(=O)N[C@@H](CC(C)C)C(=O)N[C@@H](CCCCNC(=O)c1ccc(NN)nc1)C(=O)O [^99mTc-HYNIC-FROP, metal not drawn] (H-EDYELMDLLAYLK(HYNIC)-OH)
%RCP in normal saline ([1]; 2 h): 99.5 ± 0.4%
%RCP in normal saline ([1]; 4 h): 99.1 ± 0.9%
%RCP in normal saline ([1]; 6 h): 99 ± 0.8%
%RCP in normal saline ([1]; 24 h): 94.6 ± 2.7%
logD [2]: -2.03 ± 0.03
tissue uptake at 0.25 h ([3]; blood, 1 ug, i.v. tail vein 1 μg, 15 min p.i., n = 4, read-out: Blood uptake): 0.48 ± 0.09 %ID/g
tissue uptake at 0.5 h ([3]; blood, 1 ug, i.v. tail vein 1 μg, n = 4, read-out: Blood uptake): 0.35 ± 0.1 %ID/g
tissue uptake at 0.25 h ([3]; blood, Block: 500-fold (0.5 mg) excess unlabelled FROP-1, 15 min p.i., n = 3, read-out: Blood uptake): 0.69 ± 0.16 %ID/g
tissue uptake at 0.25 h ([3]; bone, 1 ug, i.v. tail vein 1 μg, 15 min p.i., n = 4, read-out: Bone uptake): 0.18 ± 0.02 %ID/g
tissue uptake at 0.5 h ([3]; bone, 1 ug, i.v. tail vein 1 μg, n = 4, read-out: Bone uptake): 0.24 ± 0.12 %ID/g
tissue uptake at 0.25 h ([3]; heart, 1 ug, i.v. tail vein 1 μg, 15 min p.i., n = 4, read-out: Heart uptake): 0.49 ± 0.08 %ID/g
tissue uptake at 0.5 h ([3]; heart, 1 ug, i.v. tail vein 1 μg, n = 4, read-out: Heart uptake): 0.26 ± 0.11 %ID/g
tissue uptake at 0.25 h ([3]; heart, Block: 500-fold (0.5 mg) excess unlabelled FROP-1, 15 min p.i., n = 3, read-out: Heart uptake): 0.45 ± 0.03 %ID/g
tissue uptake at 0.25 h ([3]; intestine, 1 ug, i.v. tail vein 1 μg, 15 min p.i., n = 4, read-out: Intestine uptake): 0.34 ± 0.09 %ID/g
tissue uptake at 0.5 h ([3]; intestine, 1 ug, i.v. tail vein 1 μg, n = 4, read-out: Intestine uptake): 0.79 ± 0.25 %ID/g
tissue uptake at 0.25 h ([3]; intestine, Block: 500-fold (0.5 mg) excess unlabelled FROP-1, 15 min p.i., n = 3, read-out: Intestine uptake): 0.64 ± 0.09 %ID/g
tissue uptake at 0.25 h ([3]; 1 ug, MCF-7 tumor, i.v. tail vein 1 μg, 15 min p.i., n = 4, read-out: Tumor uptake): 0.25 ± 0.02 %ID/g
tissue uptake at 0.5 h ([3]; 1 ug, MCF-7 tumor, i.v. tail vein 1 μg, n = 4, read-out: Tumor uptake): 0.38 ± 0.21 %ID/g
tissue uptake at 0.25 h ([3]; MCF-7 tumor, Block: 500-fold (0.5 mg) excess unlabelled FROP-1, 15 min p.i., n = 3, read-out: Tumor uptake): 0.09 ± 0.02 %ID/g
tissue uptake at 0.25 h ([3]; kidney, 1 ug, i.v. tail vein 1 μg, 15 min p.i., n = 4, read-out: Kidney uptake): 2.22 ± 0.16 %ID/g
tissue uptake at 0.5 h ([3]; kidney, 1 ug, i.v. tail vein 1 μg, n = 4, read-out: Kidney uptake): 1.73 ± 0.15 %ID/g
tissue uptake at 0.25 h ([3]; kidney, Block: 500-fold (0.5 mg) excess unlabelled FROP-1, 15 min p.i., n = 3, read-out: Kidney uptake): 2.97 ± 0.23 %ID/g
tissue uptake at 0.25 h ([3]; liver, 1 ug, i.v. tail vein 1 μg, 15 min p.i., n = 4, read-out: Liver uptake): 0.2 ± 0.02 %ID/g
tissue uptake at 0.5 h ([3]; liver, 1 ug, i.v. tail vein 1 μg, n = 4, read-out: Liver uptake): 0.14 %ID/g
tissue uptake at 0.25 h ([3]; liver, Block: 500-fold (0.5 mg) excess unlabelled FROP-1, 15 min p.i., n = 3, read-out: Liver uptake): 0.26 ± 0.04 %ID/g
tissue uptake at 0.25 h ([3]; lung, 1 ug, i.v. tail vein 1 μg, 15 min p.i., n = 4, read-out: Lung uptake): 0.45 ± 0.08 %ID/g
tissue uptake at 0.5 h ([3]; lung, 1 ug, i.v. tail vein 1 μg, n = 4, read-out: Lung uptake): 0.41 ± 0.26 %ID/g
tissue uptake at 0.25 h ([3]; lung, Block: 500-fold (0.5 mg) excess unlabelled FROP-1, 15 min p.i., n = 3, read-out: Lung uptake): 0.6 ± 0.04 %ID/g
tissue uptake at 0.25 h ([3]; muscle, 1 ug, i.v. tail vein 1 μg, 15 min p.i., n = 4, read-out: Muscle uptake): 0.08 ± 0.01 %ID/g
tissue uptake at 0.5 h ([3]; muscle, 1 ug, i.v. tail vein 1 μg, n = 4, read-out: Muscle uptake): 0.21 ± 0.16 %ID/g
tissue uptake at 0.25 h ([3]; muscle, Block: 500-fold (0.5 mg) excess unlabelled FROP-1, 15 min p.i., n = 3, read-out: Muscle uptake): 0.15 ± 0.01 %ID/g
tissue uptake at 0.25 h ([3]; salivary gland and thyroid, 1 ug, i.v. tail vein 1 μg, 15 min p.i., n = 4, read-out: S.T (Salivary Gland and Thyroid) uptake): 0.25 ± 0.03 %ID/g
tissue uptake at 0.5 h ([3]; salivary gland and thyroid, 1 ug, i.v. tail vein 1 μg, n = 4, read-out: S.T (Salivary Gland and Thyroid) uptake): 0.32 ± 0.22 %ID/g
tissue uptake at 0.25 h ([3]; salivary gland and thyroid, Block: 500-fold (0.5 mg) excess unlabelled FROP-1, 15 min p.i., n = 3, read-out: S.T (Salivary Gland and Thyroid) uptake): 0.25 ± 0.01 %ID/g
tissue uptake at 0.25 h ([3]; spleen, 1 ug, i.v. tail vein 1 μg, 15 min p.i., n = 4, read-out: Spleen uptake): 0.15 ± 0.01 %ID/g
tissue uptake at 0.5 h ([3]; spleen, 1 ug, i.v. tail vein 1 μg, n = 4, read-out: Spleen uptake): 0.28 ± 0.11 %ID/g
tissue uptake at 0.25 h ([3]; spleen, Block: 500-fold (0.5 mg) excess unlabelled FROP-1, 15 min p.i., n = 3, read-out: Spleen uptake): 0.23 ± 0.07 %ID/g
tissue uptake at 0.25 h ([3]; stomach, 1 ug, i.v. tail vein 1 μg, 15 min p.i., n = 4, read-out: Stomach uptake): 0.21 ± 0.01 %ID/g
tissue uptake at 0.5 h ([3]; stomach, 1 ug, i.v. tail vein 1 μg, n = 4, read-out: Stomach uptake): 0.33 ± 0.12 %ID/g
tissue uptake at 0.25 h ([3]; stomach, Block: 500-fold (0.5 mg) excess unlabelled FROP-1, 15 min p.i., n = 3, read-out: Stomach uptake): 0.26 ± 0.01 %ID/g
tissue to tissue ratio at 0.25 h ([3]; tumor and blood, 1 ug, 15 min p.i., n = 4, read-out: Tumor/Blood ratio): 0.53 ± 0.15
tissue to tissue ratio at 0.5 h ([3]; tumor and blood, 1 ug, n = 4, read-out: Tumor/Blood ratio): 1.09 ± 0.47
tissue to tissue ratio at 0.25 h ([3]; tumor and blood, Block with excess FROP-1, 15 min p.i., n = 3, read-out: Tumor/Blood ratio): 0.14 ± 0.06
tissue to tissue ratio at 0.25 h ([3]; tumor and bone, 1 ug, 15 min p.i., n = 4, read-out: Tumor/Bone ratio): 1.36 ± 0.28
tissue to tissue ratio at 0.5 h ([3]; tumor and bone, 1 ug, n = 4, read-out: Tumor/Bone ratio): 1.57 ± 0.48
tissue to tissue ratio at 0.25 h ([3]; tumor and bone, Block with excess FROP-1, 15 min p.i., n = 3, read-out: Tumor/Bone ratio): 0.4 ± 0.09
tissue to tissue ratio at 0.25 h ([3]; tumor and liver, 1 ug, 15 min p.i., n = 4, read-out: Tumor/Liver ratio): 1.24 ± 0.28
tissue to tissue ratio at 0.5 h ([3]; tumor and liver, 1 ug, n = 4, read-out: Tumor/Liver ratio): 2.62 ± 1.38
tissue to tissue ratio at 0.25 h ([3]; tumor and liver, Block with excess FROP-1, 15 min p.i., n = 3, read-out: Tumor/Liver ratio): 0.36 ± 0.13
tissue to tissue ratio at 0.25 h ([3]; tumor and muscle, 1 ug, 15 min p.i., n = 4, read-out: Tumor/Muscle ratio): 3.03 ± 0.12
tissue to tissue ratio at 0.5 h ([3]; tumor and muscle, 1 ug, n = 4, read-out: Tumor/Muscle ratio): 1.94 ± 0.46
tissue to tissue ratio ([3]; tumor and muscle, 1 ug, MCF-7 tumor-bearing nude mice, only 15 and 30 min p.i. tested, read-out: time of maximum tumor/muscle ratio): 15
tissue to tissue ratio at 0.25 h ([3]; tumor and muscle, Block with excess FROP-1, 15 min p.i., n = 3, read-out: Tumor/Muscle ratio): 0.6 ± 0.12
tissue to tissue ratio at 0.25 h ([3]; tumor and spleen, 1 ug, 15 min p.i., n = 4, read-out: Tumor/Spleen ratio): 1.61 ± 0.22
tissue to tissue ratio at 0.5 h ([3]; tumor and spleen, 1 ug, n = 4, read-out: Tumor/Spleen ratio): 1.56 ± 1.04
tissue to tissue ratio at 0.25 h ([3]; tumor and spleen, Block with excess FROP-1, 15 min p.i., n = 3, read-out: Tumor/Spleen ratio): 0.42 ± 0.14
